The values that follow come from publication PMC3162126.

For data set [1], the target named is T1, AidB (Escherichia coli, UniProt P33224 1-541).
T1 sequence: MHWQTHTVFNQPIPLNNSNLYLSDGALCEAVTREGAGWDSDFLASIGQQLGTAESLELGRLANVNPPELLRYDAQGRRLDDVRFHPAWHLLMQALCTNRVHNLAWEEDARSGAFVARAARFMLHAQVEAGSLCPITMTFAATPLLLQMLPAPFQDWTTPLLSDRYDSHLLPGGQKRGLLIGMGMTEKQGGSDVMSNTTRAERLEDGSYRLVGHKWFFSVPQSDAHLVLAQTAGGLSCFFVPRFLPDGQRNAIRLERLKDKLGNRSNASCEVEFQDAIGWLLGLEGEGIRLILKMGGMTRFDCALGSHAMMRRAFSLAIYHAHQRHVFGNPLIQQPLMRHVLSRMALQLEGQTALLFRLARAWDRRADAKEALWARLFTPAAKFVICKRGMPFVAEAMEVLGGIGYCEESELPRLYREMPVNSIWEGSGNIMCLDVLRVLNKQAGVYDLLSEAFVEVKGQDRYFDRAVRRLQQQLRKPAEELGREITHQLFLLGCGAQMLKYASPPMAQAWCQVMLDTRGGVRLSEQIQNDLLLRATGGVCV
Put plainly: competition.

In data set [2] the target is T1, AidB. Put plainly: EMSA. For orientation: A gel shift assay detects complexes by their altered migration in electrophoresis.
Data set [3] addresses T1, AidB. Put plainly: competition. This is another data set of the same source.

B1: rrnB P1ΔUP (-UP), unlabelled competitor (dsDNA)
DNA 1: CCTCTTGTCAGGCCGGAATAACTCCCTATAAT
DNA 2: ATTATAGGGAGTTATTCCGGCCTGACAAGAGG
Turning to B1, in data set [1], the binding result is on record as “no binding”.

B2: rrnB P1wt (+UP), biotinylated probe (dsDNA)
DNA 1: AGAAAATTATTTTAAATTTCCTCTTGTCAGGCCGGAATAACTCCCTATAAT
DNA 2: ATTATAGGGAGTTATTCCGGCCTGACAAGAGGAAATTTAAAATAATTTTCT
Regarding B2, the binding result in data set [2] is “binds”.

B3: rrnB P1wt (+UP), unlabelled competitor (dsDNA)
DNA 1: AGAAAATTATTTTAAATTTCCTCTTGTCAGGCCGGAATAACTCCCTATAAT
DNA 2: ATTATAGGGAGTTATTCCGGCCTGACAAGAGGAAATTTAAAATAATTTTCT
Turning to B3, in data set [3], the binding result is on record as “binds”.
